For orientation: Kd means the concentration at which binding is half-saturated.

Here are results for 17 molecules from patent US20130316929A1 (Daiichi Sankyo, published 2013).

Test [1] concerns the target T1, IgG-Free, Protease-Free Bovine Serum Albumin (bovine, UniProt P02769 25-607).
T1 construct: also called BSA
Put plainly: phage ELISA, BSA immobilized on a Maxisorp plate, two-fold dilutions of phage stock, anti-M13-HRP, OD405 nm [A) (2]. Here is the method: (§1) As to 3 clones (α-EphA2 #1 to #3: corresponding to SEQ ID NOs: 3 to 5, respectively, in the Sequence Listing and to Nos. 2 to 4, respectively in FIG. 4) selected from the Escherichia coli colonies after the final round of panning with hEphA2 as a target molecule, an Escherichia coli suspension with OD_{600 nm}=0.3 was prepared using 2×YT/Amp/1% Glu. The Escherichia coli cells of each clone were shake-cultured at 37° C. and allowed to grow until OD_{600 nm}=0.5. A sufficient amount of helper phages M13K07 was added thereto to infect the cells at 37° C. for 30 minutes. After addition of 2×YT/Amp/Kan/0.25 mM IPTG, the helper phage-infected Escherichia coli was shake-cultured overnight at 22° C. 20% PEG/2.5 M NaCl solution was added to the recovered culture supernatant to precipitate phages. The precipitated phages were suspended in PBS. This phage stock solution and a series of two-fold dilutions with PBS were used in phage ELISA. An Escherichia coli TG-1 strain having a pCANTAB 5E vector containing the wild-type TACI_d2 gene was also subjected to the same operation as above to prepare phages.
TACI_d2 mutant-displaying phages were added to these Maxisorp plates and reacted for 2 hours. […] After washing of the Maxisorp plate with TBST again, the amount of a phage bound with the protein solid-phase immobilized on the plate was detected as absorbance at a wavelength of 405 nm using ELISA POD.
On the technique in general: In an ELISA, binding on a coated surface is turned into a signal by an enzyme label.

Test [2] concerns the target T2, Recombinant Human EphA2, CF (human, UniProt P29317 25-534).
T2 construct: Bought recombinant protein; also called hEphA2; recombinant hEphA2
Put plainly: phage ELISA, hEphA2 immobilized on a Maxisorp plate, two-fold dilutions of phage stock, anti-M13-HRP, OD405 nm [A) (1]. Here is the method: as §1
TACI_d2 mutant-displaying phages were added to these Maxisorp plates and reacted for 2 hours. Each Maxisorp plate was washed with TBST. Then, an Anti-M13 antibody diluted 5000-fold was added thereto. After washing of the Maxisorp plate with TBST again, the amount of a phage bound with the protein solid-phase immobilized on the plate was detected as absorbance at a wavelength of 405 nm using ELISA POD.

Test [3] has as its target T3, human EphA2 expressed on cell surface (human, UniProt P29317 24-976).
T3 construct: whole, on cells; also called human EphA2-expressing cells
Put plainly: flow cytometry, phage stock on transfected HEK293T cells, anti-M13 antibody and fluorescein anti-mouse IgG, FL1 [B) (4]. Here is the method:
as §1, with “The” for “As to 3 clones (α-EphA2 #1 to #3: corresponding to SEQ ID NOs: 3 to 5, respectively, in the Sequence Listing and to Nos. 2 to 4, respectively in FIG. 4) selected from the Escherichia coli colonies after the final round of panning with hEphA2 as a target molecule, an Escherichia coli suspension with OD_{600 nm}=0.3 was prepared using 2×YT/Amp/1% Glu. The”
(§2) The transfected cells were recovered. The recovered cells were suspended in a FACS buffer (PBS containing 5% FBS) and applied to a nylon mesh. The solution was dispensed in an amount of 5×10⁵ cells/well to 96 Well Cell Culture Cluster Round Bottom With Lid (manufactured by Costar, Corning Inc.) and centrifuged to remove a supernatant. The phage stock solution prepared in the paragraph 1) of Example 4 was added to the resulting cells at a concentration of 50 μL/well, and the mixture was left standing at 4° C. for 30 minutes. […] Fluorescently stained cells were detected.

Test [4] concerns the target T4, Recombinant Human VEGF165 (human, UniProt P15692-4 27-191).
T4 construct: Isoform VEGF165; also called hVEGF
Put plainly: SPR, Biacore 3000, hVEGF immobilized on sensor chip, mutant applied at various concentrations. An excerpt: Examples of the determination-calculation system of surface plasmon resonance can include, but not limited to, Biacore system (GE Healthcare Japan Corp.). Procedures for the method using Biacore system are as follows: target molecules are immobilized onto a sensor chip of Biacore system by amine coupling; the target molecules are contacted with peptides at a plurality of peptide concentrations; the interaction therebetween is detected by surface plasmon resonance; a series of association and dissociation reactions is drawn in a sensorgram with time as the abscissa against the amount of binding (RU) as the ordinate; the sensorgram drawn at the plurality of peptide concentrations is fit to a 1:1 Langmuir model using BIAevaluation software (manufactured by GE Healthcare Japan Corp.) to calculate various rate parameters; and the dissociation constant is calculated from various rate parameters thus calculated.
The gene of the hVEGF-binding TACI_d2 mutant (No. 9 in FIG. 4: SEQ ID NO: 10 in the Sequence Listing) obtained in Example 2 was amplified by PCR and inserted to a vector pET-32a for expression in Escherichia coli (Novagen, Merck KGaA). […] The affinity of the mutant was determined by a surface plasmon resonance method using Biacore 3000 (GE Healthcare Japan Corp.). […] The dissociation constant of the mutant for hVEGF was determined from the obtained sensorgram.

Test [5] has as its target T4, Recombinant Human VEGF165. Put plainly: phage panning and phage ELISA on hVEGF.
Test [6] addresses T3, human EphA2 expressed on cell surface. The experiment in a line: flow cytometry, phage stock on transfected HEK293T cells, anti-M13 antibody and fluorescein anti-mouse IgG, FL1 [A) (1]. As for the experimental part: as §1, with “The” for “As to 3 clones (α-EphA2 #1 to #3: corresponding to SEQ ID NOs: 3 to 5, respectively, in the Sequence Listing and to Nos. 2 to 4, respectively in FIG. 4) selected from the Escherichia coli colonies after the final round of panning with hEphA2 as a target molecule, an Escherichia coli suspension with OD_{600 nm}=0.3 was prepared using 2×YT/Amp/1% Glu. The”
as §2
In general terms: A flow cytometer gives signals particle by particle.

Test [7] shares this target. Put plainly: flow cytometry, phage stock on transfected HEK293T cells, anti-M13 antibody and fluorescein anti-mouse IgG, FL1 [A) (2]. Here is the method: as §1, with “The” for “As to 3 clones (α-EphA2 #1 to #3: corresponding to SEQ ID NOs: 3 to 5, respectively, in the Sequence Listing and to Nos. 2 to 4, respectively in FIG. 4) selected from the Escherichia coli colonies after the final round of panning with hEphA2 as a target molecule, an Escherichia coli suspension with OD_{600 nm}=0.3 was prepared using 2×YT/Amp/1% Glu. The”
as §2

The target of test [8] is T5, Recombinant Human EGF R/Fc Chimera, CF (human, UniProt P00533 25-645; P01857 100-330 = IgG part).
T5 construct: range 25-645;range 100-330; R&D systems product; also called hEGFR/Fc
The experiment in a line: phage panning and phage ELISA on hEGFR/Fc (TACI_d2 mutant binding to the extracellular domain of human EGFR).

The next test concerns the target T6, Recombinant Human TNF-α (human, UniProt P01375 77-233).
T6 construct: also called hTNF-α
Put plainly: phage panning and phage ELISA on hTNF-α.

T2 sequence (P29317 25-534 limits assumed): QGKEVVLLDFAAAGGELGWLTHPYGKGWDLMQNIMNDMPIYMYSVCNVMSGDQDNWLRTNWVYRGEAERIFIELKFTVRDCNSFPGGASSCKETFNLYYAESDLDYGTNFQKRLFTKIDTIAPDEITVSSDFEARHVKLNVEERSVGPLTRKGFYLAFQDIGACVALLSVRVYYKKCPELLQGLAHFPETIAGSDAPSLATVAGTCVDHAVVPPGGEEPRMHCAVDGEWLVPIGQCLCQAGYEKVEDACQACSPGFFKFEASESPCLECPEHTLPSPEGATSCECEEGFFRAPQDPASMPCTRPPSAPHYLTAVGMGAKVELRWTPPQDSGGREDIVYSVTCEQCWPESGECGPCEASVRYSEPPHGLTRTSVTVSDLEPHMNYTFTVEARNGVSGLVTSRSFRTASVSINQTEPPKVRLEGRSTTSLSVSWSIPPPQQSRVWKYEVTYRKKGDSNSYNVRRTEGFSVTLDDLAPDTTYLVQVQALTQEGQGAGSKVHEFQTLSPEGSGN
T6 sequence (P01375 77-233 limits assumed): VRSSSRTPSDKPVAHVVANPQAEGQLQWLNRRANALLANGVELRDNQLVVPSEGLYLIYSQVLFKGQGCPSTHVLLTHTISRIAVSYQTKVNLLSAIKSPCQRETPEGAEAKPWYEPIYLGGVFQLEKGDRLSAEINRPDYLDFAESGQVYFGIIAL
T4 sequence (P15692 other isoform, or with tags, fused parts or gaps limits assumed): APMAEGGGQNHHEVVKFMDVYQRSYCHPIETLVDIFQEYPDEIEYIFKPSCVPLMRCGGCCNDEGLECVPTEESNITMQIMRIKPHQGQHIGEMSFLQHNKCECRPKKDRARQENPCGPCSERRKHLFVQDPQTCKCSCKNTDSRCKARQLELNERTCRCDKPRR
T3 sequence (P29317 24-976): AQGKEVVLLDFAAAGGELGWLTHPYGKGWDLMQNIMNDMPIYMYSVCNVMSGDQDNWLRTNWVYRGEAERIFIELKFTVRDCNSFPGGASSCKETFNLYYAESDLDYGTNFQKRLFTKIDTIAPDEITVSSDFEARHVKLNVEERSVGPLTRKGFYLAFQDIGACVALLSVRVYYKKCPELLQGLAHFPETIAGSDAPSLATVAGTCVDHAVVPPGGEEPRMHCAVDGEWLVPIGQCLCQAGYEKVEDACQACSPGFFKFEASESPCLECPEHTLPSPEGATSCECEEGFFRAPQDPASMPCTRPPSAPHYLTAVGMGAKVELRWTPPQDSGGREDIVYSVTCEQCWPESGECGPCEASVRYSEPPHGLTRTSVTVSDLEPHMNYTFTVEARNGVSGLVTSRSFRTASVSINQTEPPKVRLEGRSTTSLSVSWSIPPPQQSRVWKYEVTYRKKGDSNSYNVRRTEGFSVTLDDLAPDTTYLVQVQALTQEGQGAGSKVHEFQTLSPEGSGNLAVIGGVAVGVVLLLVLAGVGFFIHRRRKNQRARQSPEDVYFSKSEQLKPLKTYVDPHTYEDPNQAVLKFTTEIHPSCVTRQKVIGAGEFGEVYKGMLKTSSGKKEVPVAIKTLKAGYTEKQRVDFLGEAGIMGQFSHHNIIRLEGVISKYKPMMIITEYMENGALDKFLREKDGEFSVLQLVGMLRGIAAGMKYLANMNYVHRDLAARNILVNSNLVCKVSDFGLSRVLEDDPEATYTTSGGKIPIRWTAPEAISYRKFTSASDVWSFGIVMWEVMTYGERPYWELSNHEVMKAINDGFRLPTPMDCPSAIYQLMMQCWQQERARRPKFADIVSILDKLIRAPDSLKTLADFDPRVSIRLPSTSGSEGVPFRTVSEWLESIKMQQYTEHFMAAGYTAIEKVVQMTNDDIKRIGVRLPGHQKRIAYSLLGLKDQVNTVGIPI
T1 sequence (P02769 25-607 limits assumed): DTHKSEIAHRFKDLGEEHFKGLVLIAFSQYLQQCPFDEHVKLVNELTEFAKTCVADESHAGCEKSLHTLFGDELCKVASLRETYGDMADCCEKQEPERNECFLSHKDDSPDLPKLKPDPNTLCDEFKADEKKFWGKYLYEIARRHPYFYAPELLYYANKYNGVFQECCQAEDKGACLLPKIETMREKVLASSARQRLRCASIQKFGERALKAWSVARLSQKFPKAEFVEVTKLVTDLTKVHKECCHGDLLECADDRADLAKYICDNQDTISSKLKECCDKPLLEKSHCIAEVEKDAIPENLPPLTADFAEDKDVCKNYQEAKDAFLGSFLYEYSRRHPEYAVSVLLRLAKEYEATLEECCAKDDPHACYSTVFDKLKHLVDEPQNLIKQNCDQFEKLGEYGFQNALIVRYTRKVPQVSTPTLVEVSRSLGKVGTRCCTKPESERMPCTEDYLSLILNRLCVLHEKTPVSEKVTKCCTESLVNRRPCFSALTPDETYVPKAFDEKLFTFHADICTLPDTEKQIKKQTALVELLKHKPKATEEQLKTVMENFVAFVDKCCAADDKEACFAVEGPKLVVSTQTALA

On to SLSCRKEQGKFYDHLLRDCISCASICGQHPKQCAYFCENKLR (receptor, UniProt O14836 68-109, looked up, also called WT) [wild-type TACI_d2], for which the binding result in [1], in [2] and in test [3] was “no binding” each time.

B1: hVEGF-binding TACI_d2 mutant (No. 9 in FIG. 4), purified monomer (designed binder)
chain: SLSCRKEQGKMYDLYGFDCRSCASMCGKHPDLCAYFCEN
notes: Expressed from pET-32a in E. coli Origami B; thioredoxin tag and His tag removed by thrombin cleavage; monomer peak of size exclusion chromatography used; also called the mutant
Consider B1, for which, in [4], the dissociation constant Kd is 14 µM.
Regarding SLSCRKEQGKMYDLYGFDCRSCASMCGKHPDLCAYFCEN (designed binder, The purified free form is m26) [human VEGF-binding peptide (2), phage-displayed], the binding result in [5] is reported as “binds”.
As to SLSCRKEQGKIYMTWHDDCHSCASLCGSHPLFCAYFCEN (designed binder) [human VEGF-binding peptide (5)], the binding result in test [5] was “binds”.
As to SLSCRKEQGKQYLLREWDCDSCASECGSHPHYCAYFCEN (designed binder, also called α-EphA2 #1) [α-EphA2 TACI_d2 #1], the binding result in test [2] and in [6] was “binds” each time.
Turning to SLSCRKEQGKMYLLKEWDCASCASACGNHPHYCAYFCEN (designed binder, also called α-EphA2 #2) [α-EphA2 TACI_d2 #2], the binding result in test [2] and in test [7] was “binds” each time.
As to SLSCRKEQGKHYLLKEYDCDSCASECGYHPDYCAYFCEN (designed binder, also called α-EphA2 #3) [α-EphA2 TACI_d2 #3], in [2], the binding result is recorded as “binds”.
Regarding SLSCRKEQGKSYGAIMYDCSSCASYCGEHPWHCAYFCEN (designed binder) [human EGFR-binding peptide (1)], the binding result in test [8] is “binds”.
SLSCRKEQGKIYNQYGFDCKSCASWCGKHPDMCAYFCEN (designed binder) [human VEGF-binding peptide (4)]: the binding result in [5] is “binds”.
On the same count and under the same terms, under SLSCRKEQGKMYMVWTQDCKSCASWCGAHPVACAYFCEN (designed binder) [human VEGF-binding peptide (3)] stands “binds”.
For the molecule SLSCRKEQGKSYTSEWFDCASCASKYGKHPLVCAYFCEN (designed binder) [human TNFα-binding peptide (3)], the binding result with Recombinant Human TNF-α is “binds”.
Take SLSCRKEQGKNYIHQQWDCASCASECGGHPNYCAYFCEN (designed binder) [human EGFR-binding peptide (3)]: the binding result in test [8] was “binds”.
In the case of SLSCRKEQGKWYMTWESDCKSCASWCGSHPFDCAYFCEN (designed binder) [human VEGF-binding peptide (1)], the binding result in test [5] is “binds”.
For SLSCRKEQGKEYGAIAWDCSSCASYCGAHPFECAYFCEN (designed binder) [human EGFR-binding peptide (2)], in test [8], the binding result is given as “binds”.
For SLSCRKEQGKDYMVFGQDCHSCASWCGKHPVACAYFCEN (designed binder) [human VEGF-binding peptide (6)], the binding result in test [5] is “binds”.
Consider SLSCRKEQDKTYIEYGFDCRSCASGCGGHPLMCAYFCEN (designed binder) [human TNFα-binding peptide (2)], for which the binding result with Recombinant Human TNF-α is “binds”.
On to SLSCRKEQGKQYMAGHFDCNSCASRYGHHPLMCAYFCEN (designed binder) [human TNFα-binding peptide (1)], for which the binding result with Recombinant Human TNF-α was “binds”.
